Assay results reported in publication PMC6219380.

Target: SgcC5 (unlabelled) (Streptomyces globisporus)
Experiment: SEC

- stoichiometry N: 2
Substance: SgcC5 (unlabelled) (enzyme)
